Data on 4 molecules can be found in patent publication US20060088908A1 (Pieris, published 2006).

B4: biotinylated synthetic thrombospondin peptide from the cell binding domain of human Thrombospondin1 (peptide)
peptide: RFYVVMWKXXK
modifications: Aca-Aca (amino caproic acid) after Lys8; C-terminal Lys-Biotin
notes: Immobilised through its C-terminal biotin on avidin (ELISA) or streptavidin chip (SPR)

The target of one assay is Avidin (Fluka) (UniProt P02701 25-152). As to the kind of experiment: ELISA control without IL-8: avidin-coated wells only, mutein N4 titrated, anti-strepII-antibody-HRP detection, OD450. On the procedure:
(§1) For the detection of binding in an ELISA experiment two rows (12 wells each) of a 96 microtiter plate (Maxisorb, Nunc) were coated with 50 μl of a 50 μg/ml solution of Avidin (Fluka) in PBS overnight at 4° C. After washing three times with PBST, one row was treated with 50 μl/well of a 1 μM solution of biotinylated IL-8 in PBST, whereas the second row was incubated with PBST as a control. After 1 hour at RT, all wells were washed three times with PBST and unspecific binding sites were saturated with 100 μl of 4% w/v skimmed milk powder in PBST for 1 hour at RT.
(§2) As a control for unspecific binding to avidin, a similar dilution series of the mutein N4 was applied to wells where the IL-8 had been omitted. Complex formation was allowed for 1 hour at RT, followed by three washes with PBST and incubation at RT for 1 hour with anti-strepII-antibody-HRP-conjugate (IBA) diluted 1:8000 in PBST.
(§3) Detection of bound mutein N4 was accomplished using 3,3′,5,5′-tetramethylbenzidine and H₂O₂ as substrates for horseradish-peroxidase. For this purpose, all wells were filled with 100 μl of a ready-to-use HRP-substrate solution (Biochem Immunosystems). The colour development was stopped after a few minutes by adding 100 μl of 0.3 M sulphuric acid. Product formation was measured via endpoint absorption at 450 nm in a SpectraMax 250 photometer (Molecular Devices).
A general note: An ELISA detects its analyte on a solid surface through an enzyme-linked reagent.

Assay [1] concerns the target T1, recombinant human cytokine interleukin-8 (Promocell) (human, UniProt P10145 23-99, biotin groups on lysine residues (NHS-SS-Biotin) in the ELISA; digoxigenin groups (DIG-NHS) in the colony screening).
T1 construct: also called IL-8
T1 sequence: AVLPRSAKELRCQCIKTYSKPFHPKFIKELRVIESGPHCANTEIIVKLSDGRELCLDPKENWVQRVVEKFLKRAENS
The assay can be described thus: ELISA, apparent KD, biotinylated IL-8 on avidin-coated plate, anti-strepII-antibody-HRP. The method, then:
as §1, §2, §3

For assay [2], the target named is streptavidin of the streptavidin-coated sensor chip SA (BIACORE) (UniProt P22629 37-163, limits assumed). As to the kind of experiment: SPR, BIAcore X, streptavidin-coated sensor chip SA. (SPR reads the build-up and loss of mass on a sensor chip optically.)
Assay [3] has as its target B4. The assay can be described thus: ELISA, apparent KD, biotinylated peptide on avidin-coated plate, anti-strepII-antibody-HRP. On the procedure: For the detection of binding in an ELISA (Enzyme-linked Immunosorbent Assay) the wells of a microtiter plate (Maxisorb, Nunc) were filled each with 50 μl of a 50 μg/ml solution of Avidin (Fluka) in PBS and were incubated over night at room temperature (RT). After washing three times with PBST, 50 μl of a 1 μM solution of the biotinylated thrombospondin peptide SEQ ID NO:18 in PBST were filled into the wells and the peptide was immobilized via complex formation between biotin and the preadsorbed avidin. After incubation for one hour the solution was removed and the wells of the microtiter plate were washed three times with PBST. In order to saturate unspecific binding sites, the wells were filled with 100 μl of 4% w/v BSA in PBST and incubated for one hour at RT, followed by three times washing with PBST.
Then a dilution series of the muteins from Example 9 was prepared, starting from 100 nM concentration, and followed by 1 hour incubation at RT. As a control for unspecific binding to avidin, a similar dilution series of hNGAL and its muteins was applied to wells where the thrombospondin peptide had been omitted. After washing three times with PBST, Anti-strepII-antibody-HRP-conjugate (IBA), diluted 1:8000 with PBST, was applied to the wells. Incubation was performed for 1 hour at RT and followed by washing three times with PBST and twice with PBS. […]

Assay [4] has as its target B4. As to the kind of experiment: SPR, BIAcore X, steady state, biotinylated peptide on sensor chip SA. The method, then:
The binding affinity of the hNGAL muteins to the thrombospondin peptide SEQ ID NO: 18 was determined by surface plasmon resonance (SPR) using the BIAcore X system (BIACORE). First 35 μl of the biotinylated thrombospondin peptide at a concentration of 1 μg/ml (prepared by mixing 1 μl of a 200 μg/ml peptide solution in DMF with 199 μl HBS buffer containing 150 mM NaCl, 10 mM HEPES pH 7.4, 3 mM EDTA) was immobilized to the surface of one flow channel of a streptavidin-coated sensor chip SA (BIACORE) according to the instructions of the manufacturer, resulting in an amount of ca. 400 response units (RU). Binding curves of the hNGAL muteins were then measured by applying 35 μl of each purified muteins from Example 9 in HBS buffer at concentrations between 500 nM and 25 nM using HBS-EP (HBS containing 0.005% Surfactant P20) as a running buffer and a continuous flowrate of 5 μl/min.
Steady state resonance values were measured at the end of the injection phase for the channel with the immobilized thrombospondin peptide for each protein concentration applied. Only negligible buffer effects were detected in the second channel of the sensor chip, which served as a control. These values were directly plotted against the concentration of the hNGAL mutein. […]

The target in assay [5] is T2, original hNGAL with C-terminal Strep-Tag II (encoded by phNGAL15, purified) (human, UniProt P80188 21-198).
T2 construct: mature
As to the kind of experiment: ELISA: biotinylated thrombospondin peptide on avidin-coated wells, hNGAL titrated, anti-strepII-antibody-HRP detection, A450. On the procedure:
For the detection of binding in an ELISA (Enzyme-linked Immunosorbent Assay) the wells of a microtiter plate (Maxisorb, Nunc) were filled each with 50 μl of a 50 μg/ml solution of Avidin (Fluka) in PBS and were incubated over night at room temperature (RT). After washing three times with PBST, 50 μl of a 1 μM solution of the biotinylated thrombospondin peptide SEQ ID NO:18 in PBST were filled into the wells and the peptide was immobilized via complex formation between biotin and the preadsorbed avidin. After incubation for one hour the solution was removed and the wells of the microtiter plate were washed three times with PBST. In order to saturate unspecific binding sites, the wells were filled with 100 μl of 4% w/v BSA in PBST and incubated for one hour at RT, followed by three times washing with PBST. […]
Detection of bound hNGAL muteins was accomplished using 3,3′,5,5′-tetramethylbenzidine and H₂O₂ as substrates for horseradish-peroxidase. For this purpose, 100 μl of a ready-to-use HRP-substrate solution (Biochem Immunosystems) was filled into the wells and the colour development was stopped after a few minutes by adding 100 μl of 0.3 M sulphuric acid. Product formation was measured via the endpoint absorption at 450 nm in a SpectraMax 250 photometer (Molecular Devices).

streptavidin of the streptavidin-coated sensor chip SA (BIACORE), sequence (P22629 37-163 limits assumed): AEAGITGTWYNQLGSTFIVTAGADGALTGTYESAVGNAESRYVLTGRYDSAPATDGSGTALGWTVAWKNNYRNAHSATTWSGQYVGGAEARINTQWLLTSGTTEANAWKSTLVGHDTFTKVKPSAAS
Avidin (Fluka), sequence (P02701 25-152 limits assumed): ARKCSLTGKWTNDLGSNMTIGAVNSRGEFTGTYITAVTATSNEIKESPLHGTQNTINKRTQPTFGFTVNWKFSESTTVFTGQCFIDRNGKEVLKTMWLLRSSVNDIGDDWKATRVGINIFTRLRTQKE

B1: hNGAL mutein N4 with C-terminal Strep-Tag II (phNGAL15 derivative, purified) (designed binder, not shown: small tags and cut ends)
chain: QDSTSDLIPAPPLSKVPLQQNFQDNQFQGKWYLVGLAGNDIYRADSLPGLMYATIYELKEDKSYNVTSVVFYDKKCVYSIRTFVPGSQPGEFTLGNIKSYEAVTSFLVRVVSTNYNQHAMVFFKDVRPNSEEFKITIYGRTKELPSELKENFIRFSKSLGLPENHIVFPVPIDQCIDG
With B1, the binding result in the assay with Avidin (Fluka) was “no binding (tested: 1000 nM)”. Also, the Kd in assay [1] was found to be 300 nM.

B2: hNGAL mutein RFY-C with C-terminal Strep-Tag II (phNGAL15 derivative, purified) (designed binder, not shown: small tags and cut ends)
chain: QDSTSDLIPAPPLSKVPLQQNFQDNQFQGKWYLVGLAGNGIHRLDNVPPNMYATIYELKEDKSYNVTSVDFLMKKCPYFIRTFVPGSQPGEFTLGNIKSYPFLTSFLVRVVSTNYNQHAMVFFKNVPRNYEEFKITIYGRTKELPSELKENFIRFSKSLGLPENHIVFPVPIDQCIDG
As to B2, the binding result in assay [2] is “no binding”. The Kd in assay [3] is 4.6 nM; in assay [4], 106 nM.

B3: hNGAL mutein RFY-E with C-terminal Strep-Tag II (phNGAL15 derivative, purified) (designed binder, not shown: small tags and cut ends)
chain: QDSTSDLIPAPPLSKVPLQQNFQDNQFQGKWYLVGLAGNGITRVDTLPSRMYATIYELKEDKSYNVTSVPFMGKKCKYKIRTFVPGSQPGEFTLGNIKSYMSNTSFLVRVVSTNYNQHAMVFFKQVHKNPESFKITIYGRTKELPSELKENFIRFSKSLGLPENHIVFPVPIDQCIDG
Consider B3, for which the binding result in assay [2] is “no binding”. The figures for the Kd in assay [3] and in assay [4] were 8.2 nM and 107 nM, respectively.

Regarding B4, the binding result in assay [5] is on record as “no binding (tested: 200 nM)”.
